Molecular target: S:D614G protein (SARS-CoV-2 spike with the D614G mutation, form used for cryoEM) (SARS-CoV-2 | not stated)
Test: cryo-EM structure

With “S:D614G protein (SARS-CoV-2 spike with the D614G mutation, form used for cryoEM)” the stoichiometry N was 3.
